Experimental data reported in patent US20190282704A1 (ZOETIS SERVICES, published 2019).
Substitutions are numbered along the chain they refer to. Bridges are numbered along the chain shown (N, C = ends). Where no end group is shown, it is not given here. mT2a = not defined here

T1: Peptide ZTS-564 (terminal cysteines constrained with the mT2b linker (CLIPS))
T1 peptide: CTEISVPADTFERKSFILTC

T2: canine IL-31 (Canine_IL31) (canine)
T2 chain: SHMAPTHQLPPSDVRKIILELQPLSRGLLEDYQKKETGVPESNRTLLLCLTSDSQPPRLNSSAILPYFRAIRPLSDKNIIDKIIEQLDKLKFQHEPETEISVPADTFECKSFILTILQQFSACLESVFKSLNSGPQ

T3: human IL-31 (human, UniProt Q6EBC2 24-164)
T3 construct: Production of the protein used as Biacore surface is not described
T3 sequence: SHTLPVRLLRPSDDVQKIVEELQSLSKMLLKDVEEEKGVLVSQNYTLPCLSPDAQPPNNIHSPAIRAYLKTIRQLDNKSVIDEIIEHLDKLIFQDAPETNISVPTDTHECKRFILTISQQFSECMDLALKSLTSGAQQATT

T4: equine IL-31 (Equine_IL31) (equine)
T4 construct: Production of the protein used as Biacore surface is not described; also called horse IL-31
T4 chain: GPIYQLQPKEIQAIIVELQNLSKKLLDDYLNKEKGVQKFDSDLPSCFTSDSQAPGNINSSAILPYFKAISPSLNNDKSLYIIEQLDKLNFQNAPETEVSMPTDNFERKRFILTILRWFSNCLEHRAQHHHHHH

B1: Peptide ZTS-562 (peptide)
peptide: CEISVPADTFERKSFC
modifications: constrained through the terminal cysteines; linker only shown in FIG. 13A
B2: Peptide ZTS-563 (peptide)
peptide: CAKVSMPADNFERKNFILTC
modifications: linker 1-20 via mT2a; reading uncertain
B3: ZTS-927 (antibody)
heavy: QVLLVQSGAEVRTPGASVKIFCKASGYSFTSYTIHWLRQAPAQGLEWMGNINPTSGYTENNQRFKDRLTLTADTSTNTAYMELSSLRSADTAMYYCARWGFKYDGEWSFDVWGAGTTVTVSSASTTAPSVFPLAPSCGTTSGATVALACLVLGYFPEPVTVSWNSGALTSGVHTFPAVLQASGLYSLSSMVTVPSSRWLSDTFTCNVAHPPSNTKVDKTVRKTDHPPGPKPCDCPKCPPPEMLGGPSIFIFPPKPKDTLSISRTPEVTCLVVDLGPDDSDVQITWFVDNTQVYTAKTSPREEQFNSTYRVVSVLPILHQDWLKGKEFKCKVNSKSLPSPIERTISKAKGQPHEPQVYVLPPAQEELSRNKVSVTCLIKSFHPPDIAVEWEITGQPEPENNYRTTPPQLDSDGTYFVYSKLSVDRSHWQRGNTYTCSVSHEALHSHHTQKSLTQSPGK
light: EIQMTQSPSSLSASPGDRVTITCRASQGISIWLSWYQQKPGNIPKVLINKASNLHIGVPSRFSGSGSGTDFTLTISSLEPEDAATYYCLQSQTYPLTFGGGTKLEIKRSDAQPSVFLFQPSLDELHTGSASIVCILNDFYPKEVNVKWKVDGVVQNKGIQESTTEQNSKDSTYSLSSTLTMSSTEYQSHEKFSCEVTHKSLASTLVKSFQRSECQRE
B4: ZTS-361 (antibody)
heavy: B3 heavy with M242A, L243A, G245A
light: B3 light
B5: mouse anti IL-31 antibody 15H05 (antibody, V domains shown)
VH: QVQLQQSAAELARPGASVKMSCKTSGYTFTSYTIHWIKQRPGQGLEWIGNINPTSGYTENNQRFKDKTTLTVDRSSNTAYLQLHSLTSEDSAVYFCARWGFKYDGEWSFDVWGAGTTVTVSS
VL: DIQMNQSPSSLSASLGDTITVTCRASQGISIWLSWYQQKPGNIPKVLINKASNLHIGVPPRFSGSGSGTHFTLTITSLQPEDIATYYCLQSQTYPLTFGGGTKLEIN
notes: Mouse hybridoma monoclonal; also called Mu-15H05; MU-15H05
B6: ZIL69 (antibody, V domains shown)
VH: EVQLVESGGDLVKPAGSLRLSCVASGFTFSSYAMKWVRQAPGKGLQWVATINNDGTRTGYADAVRGRFTISKDNAKNTLYLQMDSLRADDTAVYYCTKGNAESGCTGDHCPPYWGQGTLVTVSS
VL: SSVLTQPPSVSVSLGQTATISCSGESLNKYYAQWFQQKAGQAPVLVIYKDTERPSGIPDRFSGSSAGNTHTLTISGARAEDEADYYCESAVSSETNVFGSGTQLTVLR
notes: Recombinant fully canine IgG (65_1 isotype); also called CAN-ZIL69
B7: ZIL94 (antibody, V domains shown)
VH: EVQLVDSGGDLVKPGGSLRLSCVASGFTFSTYFMSWVRQAPGRGLQWVALISSDGSGTYYADAVKGRFTISRDNAKNTLYLQMNSLRAEDTAMYYCAIFWRAFNDWGQGTLVTVSS
VL: QTVVIQEPSLSVSPGGTVTLTCGLNSGSVSTSNYPGWYQQTRGRTPRTIIYDTGSRPSGVPNRFSGSISGNKAALTITGAQPEDEADYYCSLYTDSDILVFGGGTHLTVLR
notes: Recombinant fully canine IgG (65_1 isotype); also called CAN-ZIL94
B8: ZIL154 (antibody, V domains shown)
VH: EVHLVESGGDLVKPWGSLRLSCVASGFTFSDRGMSWVRQSPGKGLQWVAYIRYDGSRTDYADAVEGRFTISRDNAKNTLYLQMNSLRAEDTAVYYCARWDGSSFDYWGQGTLVTVSS
VL: DIVVTQTPLSLSVSPGETASFSCKASQSLLHSDGNTYLDWFRQKPGQSPQRLIYKVSNRDPGVPDRFSGSGSGTDFTLRISGVEADDAGLYYCMQAIHFPLTFGAGTKVELKR
notes: Recombinant fully canine IgG (65_1 isotype); also called CAN-ZIL154
B9: ZIL159 (antibody, V domains shown)
VH: EVQLVESGGDLVKPAGSLRLSCVASGFTFSSYVMTWVRQAPGKGLQWVAGINSEGSRTAYADAVKGRFTISRDNAKNTLYLQIDSLRAEDTAIYYCATGDIVATGTSYWGQGTLVTVSS
VL: SNVLTQPPSVSVSLGQTATISCSGETLNRFYTQWFQQKAGQAPVLVIYKDTERPSGIPDRFSGSSSGNIHTLTISGARAEDEAAYYCKSAVSIDVGVFGGGTHLTVFR
notes: Recombinant fully canine IgG (65_1 isotype); also called CAN-ZIL159
B10: ZIL171 (antibody, V domains shown)
VH: EVQLVESGGDLVKPAGSLRLSCVASGFTFRTYVMNWVRQAPGKGLQWVASINGGGSSPTYADAVRGRFTVSRDNAQNSLFLQMNSLRAEDTAIYFCVVSMVGPFDYWGHGTLVTVSS
VL: B6 VL with E25K, N28S, K29Y, A66S, E94D, N96I, S100G, Q103H
notes: Recombinant fully canine IgG (65_1 isotype); also called CAN-ZIL171
B11: mouse anti IL-31 antibody 11E12 (antibody, V domains shown)
VH: QVQLQQSGAELVKPGASVKLSCKASGYTFKYYDINWVRQRPEQGLEWIGWIFPGDGGTKYNETFKGKATLTTDKSSSTAYMQLSRLTSEDSAVYFCARGGTSVIRDAMDYWGQGTSVTVSS
VL: DIVLTQSPASLAVSLGQRATISCRASESVDNYGISFMHWYQQKPGQPPKLLIYRASNLESGIPARFSGSGSRTDFTLTINPVETDDVATYYCQQSNKDPLTFGAGTKLELK
notes: Mouse monoclonal used for comparison; also called Mu-11E12; MU-11E12

What was measured:
ZTS-361 = target: B4; assay: cell-based or functional assay
Peptide ZTS-561 = target: T5, Peptide ZTS-561 (terminal cysteines constrained with the mT2a linker (CLIPS)); assay: Biacore, peptide ZTS-561 immobilised on the surface
T5 construct: Unconjugated constrained peptide; also called canine IL-31 15H05 mimotope ZTS-561

Peptide ZTS-563 = target: B2; assay: Biacore, peptide ZTS-563 immobilised on the surface
Peptide ZTS-562 = target: B1; assay: Biacore, peptide ZTS-562 immobilised on the surface
Peptide ZTS-564 = target: T1, Peptide ZTS-564; assay: Biacore, peptide ZTS-564 immobilised on the surface
[1] = target: T2, canine IL-31 (Canine_IL31); assay: cell-based or functional assay
human IL-31 = target: T3, human IL-31; assay: Biacore, IL-31 surface, single antibody concentration
[2] = target: T4, equine IL-31 (Equine_IL31); assay: as above

## B1
ZTS-361
  IC50 of peptide blocking mAb ZTS-361 inhibition of feline IL-31 mediated STAT3 phosphorylation in FCWF-4 cells, unconjugated: 1.05 µg/mL

## B2
ZTS-361
  IC50 of peptide blocking mAb ZTS-361 inhibition of feline IL-31 mediated STAT3 phosphorylation in FCWF-4 cells, unconjugated: 1.74 µg/mL

## B3
Peptide ZTS-561
  Kd: 1.02 nM
Peptide ZTS-563
  Kd: 1.48 nM
Peptide ZTS-562
  Kd: 2.78 nM
Peptide ZTS-564
  Kd: 4.13 nM
[1]
  IC50, inhibition of canine IL-31-induced STAT3 phosphorylation, canine DH82 cells: 23.2 µg/mL
  IC50, inhibition of canine IL-31-induced STAT3 phosphorylation, feline FCWF4 cells: 39.6 µg/mL

## B4
[1]
  IC50, inhibition of canine IL-31-induced STAT3 phosphorylation, canine DH82 cells: 23 µg/mL
  IC50, inhibition of canine IL-31-induced STAT3 phosphorylation, feline FCWF4 cells: 38.8 µg/mL

## B5
Human IL-31
  binding result: no binding
[2]
  binding result: binds

## B6
[2]
  binding result: no binding

## B7
[2]
  binding result: no binding

## B8
Human IL-31
  binding result: no binding
[2]
  binding result: no binding

## B9
[2]
  binding result: no binding

## B10
[2]
  binding result: no binding

## B11
Human IL-31
  binding result: no binding
[2]
  binding result: no binding
